Experimental data taken from the RNAGym collection of RNA variant scans (doi:10.1073/pnas.2313332121).

B1: TPR t1 (parent)
chain: GACCAAUCUGCCCUCAGAGCUCGAGAACAUCUUCGGAUGCAGAGGAGGCAGGCUUCGGUGGCGCGAUAGCGCCAACGUCCUCAACCUCCAAUGCAUCCCACCACAUGAUGAUGCCUGAAGAGCCUUGGUUUUUUG

Variants of: B1
Assay: polymerase ribozyme fitness, log enrichment relative to wild type (log ratio); higher = more active; in vitro selection for triplet polymerase activity
In short: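 A heterodimeric triplet polymerase ribozyme had each of its subunits mutagenized by PCR into a library, which was transcribed. One round of in vitro selection, done in triplicate, annealed each library with a biotinylated primer, its partner subunit and triplets, then incubated it frozen at −7 °C before gel excision of extended constructs, streptavidin-bead capture and RT-PCR. Fitness is the logarithm of genotype enrichment relative to wild-type enrichment, based on Illumina sequencing of inputs and outputs and inverse-variance-weighted replicate averages. A base-2 logarithm is used, and genotypes were kept only with ≥10 input reads and ≥1 read per output.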

Row | Variant | polymerase ribozyme fitness (log ratio)
1 | GACCAAUCUGCACUCAGAGCUCGAGAACAUCUUCGGAUGCAGAGGAGGCAGGCUUCGGUGGCGCGAUAGCGCCAACGUCCUCAACCUCGAAUACAUCCCACCACAUGAUGAUGCCUGAAGAGCCUUGGUUUUUUG [C12A C89G G93A] | -2.86
2 | GACCAAUCUGCACUCAGAACUGGAGACCAACUUCGGAUGAAGAGGCGGCAGGCUUAGGUGGCGCGAUAGCGCCAACGUCCUAAACCUCCAAGGCAUCCCACCACAUGAGGAUGCCUGAAGAGCCUUGGUUUUUUG [C12A G19A C22G A27C U30A C40A A46C C56A C82A U92G U109G] | -8.5
3 | GACCAAUCUGCACUCAGAGCUCGAGAACAUCUUCGGAUGCAGAGGAGGCAGGCUUCGGUGGCGCGAUAGCGCCAACGUCCUCAACCUCCAAUGUAUCCCACCACAUGAUGAUGCCUGAAGAGCCUUGGUUUUUUG [C12A C94U] | -0.961
4 | GACCAAUCUGCACUCAGAGCUCGAGAACAUCUUCGGAUGCAGAGGAGUCAGGCUUCGGUGGCGCGAUAGCGCCAACGUCCUCAACCUCCAAUGCAUCCCACCACAUGAUGAUGCCUGAAGAGCCUUGGUUUUUUG [C12A G48U] | -2.61
5 | GACCAAUCUGCACUCAGAGCUCGAGAACAUCUUCGGAUCCAGAGGAAGCAGGCUUCGGUGGCGCGUUAGCGCCAACGUCCUCAACCUCCAAUGCAUCCCACCACAUGAUGAUGCCUGAAGAGCCUUGGUUUUUUG [C12A G39C G47A A66U] | -3.14
6 | GACCAAUCUGCACUCAGAGCUCGAGAACAUCUUCGGAUGCAGAGGAGGCAGGCUUCGGUGGCGCGAUAGCGCCAACGUCCUCAACUUCCAAUGCAUCCCACCACAUGAUGUUGCCUGAAGAGCCUUGGUUUUUUG [C12A C86U A111U] | -3.42
7 | GACCAAUCUGCACUCAGAUCUCGAGAACAUCUUCGGAUGCAUAGGAGGCAGGCUUCGGUGGCGCGAUAGCGCCAACGUCCUCAACCUCCAAAGCAUCCCACCACAUGAUGACGCCUGAAGAGCCUUGGGUUUUUG [C12A G19U G42U U92A U112C U129G] | -3.59
8 | GACCAAUCUGCACUCAGAGCUCGAGAACAUCUUCGGAUGCAGAGGAGUCAGGCUUCGGUGGCGCGAUAGCGCCAACGUCCUCAACCUCCAAUGCAUCUCACCACAUGAUGAUGCCUGAAGAGCCUUGGUUUUUUG [C12A G48U C98U] | -2.11
9 | GACCAAUCUGCACUCAGAUCUCGAGAACAUCUUCGGAUGCAGAGGAGGCAGGCUUCGGUGGCGCGAUAGCGCAAACCUCCUCAACCUCCAAUGCAUCCCACCACAUGAUGAUGCCUGAAGAGCCUUGGUUUUUUG [C12A G19U C73A G77C] | -5.03
10 | GACCAAUCUGCACUCAGAGCUCGAGAACAUCUUCGGAUGCAGAGGAGGCAGGCUUCGGUGGCGCGAUAGCGCCAACGUCCUCAACCUCCAAUGCAUCCCACCACAUGAUGAUGUCUGAAGAGCCUUGGUUUUUUA [C12A C114U G135A] | -3.81
11 | GACCAAUCUGCACUCAGAGCUCGAGAACAUCUUCGGAUGCAGAGCAGGCAGGCUUCGGUGGCUCGAUAGCGCCAACGUCCUCAACCUCCAAUGCAUCCCACCACAUGAUGAUGCCUGAAGAGCCUUGGUUUUUUG [C12A G45C G63U] | -2.35
12 | GACCAAUCUGCACUCAUAGCUCGAGAACAUCUUCGGAUGCAUAGGAGGCAGGGUUCGGCGGCGCGAUAGCGCCAACGUCCUCAACCUCCAAUGCAUCCCAACACAUGAUGAUGCCUGAAGAGCCUUGGUUUUUUG [C12A G17U G42U C53G U59C C101A] | -5.66
13 | GACCAAUCUGCACUCAGAGCUCGAGAACAUCUUCGGAUGCAGAGCAGGCAGGCUUCGGUGGCGCGAUAGCGCCAACGUCCUCAACCUCCAAUGCAUCCCACCACAUGAUGAUGCCUGAAGAGCCUUGGUUUUUUG [C12A G45C] | -1.32
14 | GACCAAUCUGCACUCAUAGCUCGAGAACAUCUUCGGAUGCAGUGGAGGCAGGCUUCGGUGGCGCGAUAGCGCCAACGUCCUCAACCUCCAAUGCAUCCCACCACAUGAUGAUGCCUGAAGAGCCUUGGUUUUUUG [C12A G17U A43U] | -4.46
15 | GACCAAUCUGCACUCAGAGCUCGAGAACAUCUUCGGAUGCAUAGGAGGCAGGCUUCGGUGGCGCGAUAGCGCCAACGUCCUCAACCUGCAAUGCAUCCCACCACAUGAUGAUGUCUGAAGAGCCUUGGUUUUUUG [C12A G42U C88G C114U] | -4.43
16 | GACCAAUCUGCACUCAGAGCUCGAGAACAUCUUCGGAUGCAAAGGAGGCAGGCUUCGGUGGCGCGAUAGCGCCAACGUCCUCAACCUUCAAUGCAUCCCACCACAUGAUGAUGACUGAAAAGCCUUGGUUUUUUG [C12A G42A C88U C114A G120A] | -2.22
17 | GACCAAUCUGCACUCAGAGCUCGAGAACAUCUUCGGAUGCAGAGGAGGCAUGCUUCGGUGGCGUGAUAGCGCCAACGUCCUCAACCUCCGAUGCAUCCCACCACAUGAUGAUGCCUGAAGAGCCUUGGUUUUUUG [C12A G51U C64U A90G] | -2.6
18 | GACCAAUCUGCACUCAGAGCUCGAGAACAUCUUCGGAUGCAGAGGAGGCAGGCUUCGGUGGCGCGAUAGCGCCAACGUCCUCAACCUCCAAUGCAUCCCACUACAUGAUGAUGCAUGAAGAGCCUUGGUUUUUUG [C12A C102U C115A] | -4.21
19 | GACCAAUCUGCACUCAGAGCUCGAGAACAUCUUCGGAUGCAGAGGAGGCAAGCUUCGGUGGCGCGAUAGCGCCAACGUCCUCAACCUCCAAUGCAUCCCACCACAUGAUGAUGCCUGAAGAGCCUUGGUUUUUUG [C12A G51A] | -2.41
20 | GACCAAUCUGCACUCAGAGCUCGAGAACAUCUUCGGAUGCAGAGGAGGCACGCUUCGGUGGCGCGAUAGCGCCAACGUCCUCAACCUCCAAUGCAUCCCACCACAUGAUGAUGCCUGAAGAGCCUUGGUUUUUUG [C12A G51C] | -4.5
21 | GACCAAUCUGCACUCAGAGCUCGAGAACAUCUUCGGAUGCAGAGGACGCAGGCUUCGGUGGCGCGAUAGUGCCAACGUCCUCAACCUCCAAUGCAUCCCACCACAUGAUGAUGCCUGAAGAGCCUUGGUUUUUUG [C12A G47C C70U] | -0.753
